In US11547761B1, “Antibody adjuvant conjugates” (The Board of Trustees of the Leland Stanford Junior …, priority 2016, dated 2023):

System: human APCs (myeloid cells)
Assay: APC-tumor co-culture / myeloid cell stimulation, surface markers by flow cytometry
Assay type: cell-based
Details: 18 hours of stimulation
From the text: Human antigen presenting cells (APCs) were negatively selected from human peripheral blood mononuclear cells obtained from healthy blood donors (Stanford Blood Center) by density gradient centrifugation using a RosetteSep Human Monocyte Enrichment Cocktail (Stem Cell Technologies) containing monoclonal antibodies against CD2, CD3, CD8, CD19, CD56, CD66b and CD235a. Immature APCs were subsequently purified to >97% purity via negative selection using an EasySep Human Monocyte Enrichment Kit without CD16 depletion containing monoclonal antibodies against CD2, CD3, CD19, CD20, CD56, CD66b, CD123 and CD235a.
Tumor cells were resuspended in PBS with 0.1% fetal bovine serum (FBS) at 1 to 10×10^6 cells/mL. Cells were subsequently incubated with 2 μM CFSE to yield a final concentration of 1 μM. […]
2×10^5 APCs were incubated with or without 6.5×10^5 autologous or allogeneic CFSE-labeled tumor cells in 96-well plates (Corning) containing IMDM medium (Gibco) supplemented with 10% fetal bovine serum, 100 U/mL penicillin, 100 μg/mL streptomycin, 2 mM L-glutamine, sodium pyruvate, non-essential amino acids, 50 μM 2-ME and, where indicated, various concentrations of anti-tumor antibody and the indicated adjuvants. Cells and cell-free supernatants were analyzed after 18 hours via flow cytometry. […]

B1: Nivolumab IgG1 immunoconjugate (conjugate, chains of the INN, looked up)
VH: QVQLVESGGGVVQPGRSLRLDCKASGITFSNSGMHWVRQAPGKGLEWVAVIWYDGSKRYYADSVKGRFTISRDNSKNTLFLQMNSLRAEDTAVYYCATNDDYWGQGTLVTVSS
VL: EIVLTQSPATLSLSPGERATLSCRASQSVSSYLAWYQQKPGQAPRLLIYDASNRATGIPARFSGSGSGTDFTLTISSLEPEDFAVYYCQQSSNWPRTFGQGTKVEIK
modifications: IgG1 adjuvant immunoconjugate
- APC / myeloid / dendritic cell activation (overall): very potent
